# Reference: paper PMC6220978, “Induced conformational changes activate the peptidoglycan synthase PBP1B” (Molecular Microbiology, 2018)
# T1: PBP1B I202F (E. coli, UniProt P02919 46-844, I202F)
# T1 construct: PBP1B, E. coli, residues 46-844, made by mutagenesis of pDML924; Substitution first found in the suppressor screen of Markovski et al. 2016 (LpoB bypass); source: E. coli BL21(DE3), purified (membrane extract, HisTrap, thrombin, HiTrap SP ion exchange)
# T1 sequence (looked up): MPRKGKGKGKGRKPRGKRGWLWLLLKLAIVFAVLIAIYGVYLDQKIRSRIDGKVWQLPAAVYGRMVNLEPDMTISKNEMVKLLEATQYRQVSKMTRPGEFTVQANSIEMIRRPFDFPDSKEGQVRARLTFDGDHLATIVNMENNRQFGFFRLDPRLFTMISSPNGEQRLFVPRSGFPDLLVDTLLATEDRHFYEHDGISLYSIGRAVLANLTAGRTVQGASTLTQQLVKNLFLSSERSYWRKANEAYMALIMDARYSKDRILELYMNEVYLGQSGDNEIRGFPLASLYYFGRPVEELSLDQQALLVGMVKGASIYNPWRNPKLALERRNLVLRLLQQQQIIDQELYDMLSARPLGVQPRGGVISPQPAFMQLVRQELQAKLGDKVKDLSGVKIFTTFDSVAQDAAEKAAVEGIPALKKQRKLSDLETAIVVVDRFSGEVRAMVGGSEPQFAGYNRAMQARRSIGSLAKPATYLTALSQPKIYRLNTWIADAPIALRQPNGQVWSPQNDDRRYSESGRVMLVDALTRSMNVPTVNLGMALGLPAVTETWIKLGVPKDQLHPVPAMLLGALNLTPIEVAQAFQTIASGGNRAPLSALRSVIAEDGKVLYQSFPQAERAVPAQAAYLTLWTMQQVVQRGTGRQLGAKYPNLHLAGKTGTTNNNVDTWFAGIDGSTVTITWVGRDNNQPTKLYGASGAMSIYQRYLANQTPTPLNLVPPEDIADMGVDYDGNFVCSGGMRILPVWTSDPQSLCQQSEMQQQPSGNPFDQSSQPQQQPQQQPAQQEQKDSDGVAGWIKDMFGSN
# T2: PBP1B R157A (E. coli, UniProt P02919 46-844, R157A)
# T2 construct: PBP1B, E. coli, residues 46-844, made by mutagenesis of pDML924; source: E. coli BL21(DE3), purified (membrane extract, HisTrap, thrombin, HiTrap SP ion exchange)
# T2 sequence (looked up): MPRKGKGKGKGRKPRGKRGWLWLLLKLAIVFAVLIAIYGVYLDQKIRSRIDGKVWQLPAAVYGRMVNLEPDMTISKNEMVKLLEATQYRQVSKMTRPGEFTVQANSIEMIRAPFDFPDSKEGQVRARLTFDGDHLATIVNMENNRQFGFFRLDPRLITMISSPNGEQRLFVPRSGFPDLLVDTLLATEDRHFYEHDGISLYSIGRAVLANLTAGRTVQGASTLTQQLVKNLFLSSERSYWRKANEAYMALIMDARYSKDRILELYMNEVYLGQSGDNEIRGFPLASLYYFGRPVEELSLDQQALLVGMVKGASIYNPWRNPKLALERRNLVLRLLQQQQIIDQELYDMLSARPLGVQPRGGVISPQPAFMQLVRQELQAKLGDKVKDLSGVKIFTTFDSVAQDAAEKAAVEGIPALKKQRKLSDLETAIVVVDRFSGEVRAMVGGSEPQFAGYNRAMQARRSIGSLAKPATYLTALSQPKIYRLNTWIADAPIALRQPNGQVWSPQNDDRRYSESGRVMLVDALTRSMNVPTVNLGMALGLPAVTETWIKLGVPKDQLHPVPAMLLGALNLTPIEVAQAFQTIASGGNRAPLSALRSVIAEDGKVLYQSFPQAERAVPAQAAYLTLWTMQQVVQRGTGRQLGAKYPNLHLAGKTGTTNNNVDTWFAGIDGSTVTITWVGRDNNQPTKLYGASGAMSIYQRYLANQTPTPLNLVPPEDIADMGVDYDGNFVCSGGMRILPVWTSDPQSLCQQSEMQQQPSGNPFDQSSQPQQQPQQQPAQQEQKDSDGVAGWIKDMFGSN
# T3: PBP1B R109G (E. coli, UniProt P02919 46-844, R109G)
# T3 construct: PBP1B, E. coli, residues 46-844, made by mutagenesis of pDML924; source: E. coli BL21(DE3), purified (membrane extract, HisTrap, thrombin, HiTrap SP ion exchange)
# T3 sequence (looked up): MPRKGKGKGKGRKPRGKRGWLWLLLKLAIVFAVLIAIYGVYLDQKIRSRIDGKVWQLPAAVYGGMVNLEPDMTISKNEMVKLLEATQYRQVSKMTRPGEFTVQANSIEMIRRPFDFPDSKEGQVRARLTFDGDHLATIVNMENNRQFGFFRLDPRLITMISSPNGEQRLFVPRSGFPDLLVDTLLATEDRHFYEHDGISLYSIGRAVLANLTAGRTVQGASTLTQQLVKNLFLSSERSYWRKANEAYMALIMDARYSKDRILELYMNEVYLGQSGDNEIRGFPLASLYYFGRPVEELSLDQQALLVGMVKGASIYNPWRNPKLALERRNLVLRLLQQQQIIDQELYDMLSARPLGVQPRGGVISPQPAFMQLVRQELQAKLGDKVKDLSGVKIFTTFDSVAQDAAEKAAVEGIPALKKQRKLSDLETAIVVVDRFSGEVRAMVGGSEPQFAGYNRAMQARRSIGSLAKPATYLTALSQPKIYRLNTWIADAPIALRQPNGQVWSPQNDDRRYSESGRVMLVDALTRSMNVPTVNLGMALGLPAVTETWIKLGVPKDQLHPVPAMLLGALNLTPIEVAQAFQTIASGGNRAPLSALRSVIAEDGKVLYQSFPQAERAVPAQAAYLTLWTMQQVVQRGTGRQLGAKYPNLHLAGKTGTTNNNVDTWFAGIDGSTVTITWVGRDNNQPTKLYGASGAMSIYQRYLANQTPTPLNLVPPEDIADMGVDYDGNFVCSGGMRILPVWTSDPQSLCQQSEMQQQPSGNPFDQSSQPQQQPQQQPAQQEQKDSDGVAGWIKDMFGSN
# Experiments:
# Assay in all cases: SPR; PBP1B versions immobilised to the chip surface; LpoB injected from 19.5 nM to 10 μM; apparent KD by non-linear regression, at least three independent experiments
# Conditions in all cases: both partners purified
# [1] = molecular target: T1, PBP1B I202F
# [2] = molecular target: T2, PBP1B R157A
# [3] = molecular target: T3, PBP1B R109G
binder,measurement,setting,value
"LpoB (natural protein, E. coli, LpoB, E. coli; also called lipoprotein LpoB; source: E. coli BL21(DE3), purified (HisTrap, Superdex 200), as in Egan et al. 2014) VGQREPAPVEEVKPAPEQPAEPQQPVPTVPSVPTIPQQPGPIEHEDQTAPPAPHIRHYDWNGAMQPMVSKMLGADGVTAGSVLLVDSVNNRTNGSLNAAEATETLRNALANNGKFTLVSAQQLSMAKQQLGLSPQDSLGTRSKAIGIARNVGAHYVLYSSASGNVNAPTLQMQLMLVQTGEIIWSGKGAVSQQ",Kd,[1],26 nM
same,Kd,[2],505 nM
same,Kd,[3],3090 nM
